Data taken from article PMC6351562, “Structure, function, and inhibition of drug reactivating human gut microbial β-glucuronidases” (Scientific Reports, 2019).
Several values for one entry are separate records, joined by “and”; a condition that tells them apart may be missing. Identical values can stand only once. Marks after values point to notes of the source that are not given here.

What was measured:
[1] = substrate: O=C(O)[C@H]1O[C@@H](Oc2ccc([N+](=O)[O-])cc2)[C@H](O)[C@@H](O)[C@@H]1O; assay: purified protein, by the assay type; details: other: pNPG as substrate
[2] = substrate: O=C(O)[C@H]1O[C@@H](Oc2ccc([N+](=O)[O-])cc2)[C@H](O)[C@@H](O)[C@@H]1O; assay: purified protein, by the assay type; type: biochemical, Ruminococcus gnavus; details: other: pNPG as substrate, optimal pH 6.5, apparent value estimated at low pNPG concentrations, 37.0 °C

B1: Streptococcus agalactiae GUS (SaGUS) (Streptococcus agalactiae 2603V/R) (protein)
chain: MLYPLLTKTRNTYDLGGIWNFKLGEHNPNELLPSDEVMVIPTSFNDLMVSKEKRDYIGDFWYEKVIEVPKVSEDEEMVLRFGSVTHQAKIYVDGVLVGEHKGGFTPFEVLVPECKYNNEKIKVSICANNVLDYTTLPVGNYSEIIQEDGSIKKKVRENFDFFNYAGVHRPLKLMIRPKNHIFDITITSRLSDDLQSADLHFLVETNQKVDEVRISVFDEDNKLVGETKDSRLFLSDVHLWEVLNAYLYTARVEIFVDNQLQDVYEENFGLREIEVTNGQFLLNRKPIYFKGFGKHEDTFINGRGLNEAANLMDLNLLKDMGANSFRTSHYPYSEEMMRLADRMGVLVIDEVPAVGLFQNFNASLDLSPKDNGTWNLMQTKAAHEQAIQELVKRDKNHPSVVMWVVANEPASHEAGAHDYFEPLVKLYKDLDPQKRPVTLVNILMATPDRDQVMDLVDVVCLNRYYGWYVDHGDLTNAEVGIRKELLEWQDKFPDKPIIITEYGADTLPGLHSTWNIPYTEEFQCDFYEMSHRVFDGIPNLVGEQVWNFADFETNLMILRVQGNHKGLFSRNRQPKQVVKEFKKRWMTIPHYHNKKNSVK
In the case of B1, the Km ([1]; optimal pH 6.5, 37 °C) is reported as 170 ± 10 µM, the kcat ([1]; optimal pH 6.5, 37 °C) is reported as 120 s⁻¹ and 122 s⁻¹ and the kcat/Km ([1]; optimal pH 6.5, 37 °C) is reported as 720000 ± 30000 M⁻¹ s⁻¹.

B2: Bacteroides uniformis GUS (BuGUS) (Bacteroides uniformis str. 3978 T3 ii) (protein)
chain: QRQTQTINDSWKFLKGECTAAADSAFDDSKWTSIHLPHTWNTDAYTEKDYYRGTGWYRRQLTLPQGWKEKQIILRLDAAGKSATIYINGKNVGEHAGGYTACSFNITPFLSFDTPNTLAVCVDNARQDIAPISGDFTFFGGIYRDVWLTAVPNQHFNLTNHGSDGLFISTPQVSEEQATLSIRGEVKNDAPEKATLELTHTIYRPDGTLLQTLKKNIQLKAGETYAFSNEATPVLKPELWTPETPRLYRVETTLRNRKTKTLLDQSNHYTAFRWFRFDGDEGFFLNGKPYKLRGICRHQDQKPIGPALTDEMHRRDFLLMKEMGANFIRISHYPQDDALLEMCDKLGMLAWEEIPIIDIVPNTPGYGDNCERNLREMIRQHYNHPSIITWGYMNEILLVTQRKYKTEAELKPVLERTLALANRLERVLKEEDSTRISTMAFHGSNSYNETGLSKITDIVGWNLYQGWYGGDLTGFEKFLAQQHQNHPTHPMIVSEYGAGSDKRLHSLHPRAFDFSIEYQQKYLEHYLPVLEDTPYICGGTHWNFIDFSSALRDESMPRINNKGLVYADRTPKDVYHYYQAAWRKDIPVLHIASRDWTDRAGVQQGNAPVYLPVKIYTNLSEVELFIDGISLGKQKTENYTATFEVPFSNRNPFLFAQGNYQGKTVQDGLRINFTPIPACLDANNLKGLELAVNVGSQCFFTSDESQLTWLPDQPYAAGSWGYIGGKEGTAQTEIQNTADGPLFQTLRNEIEGYRFDAPQGVYEIELLFTDIFRRNAGIAYQLDRNGQQENRESTFGISINGEVVEESLSPCKESGYFRALRKKYYITNDKEYIDIRFHSTSGTCFLNGIKLRNIY
B2 was tested, and the Km ([1]; optimal pH 5.5, 37 °C) was 540 ± 60 µM, the kcat ([1]; optimal pH 5.5, 37 °C) was 37 ± 2 s⁻¹ and the kcat/Km ([1]; optimal pH 5.5, 37 °C) was 71000 ± 6000 M⁻¹ s⁻¹.

B3: Bacteroides dorei GUS (BdGUS) (Phocaeicola dorei CL02T12C06) (protein)
chain: SEISITDSWKYKAENDERFSSMDWNDSDWVTVDLPHTWNAGDVIDEQRGYRRGISWYRKKLFIPSEARDKKITLRFDGVASKADVYLNGKLLKTHLGAYTAFGVDITDICEVGKENLLAVKVDNSSSLGEILPPVSGDFSIFGGIYRRVFLQWTEKVHFVTEPYAAVPVRIQTPEVSVSEASMQIVAFLKNDFTDTKHVHVNVFLCDEMNRIVKEKQLKLKLIPGRKYPISTSVGRIENPHLWSPELPYLYTVKVQVCDAKNGEMYQEVISPVGFRWFSVDKTGFYLNGKYLKLRGAARHQDYAGLGTAIPVEMNRRDMRLLKEMGANFVRISHYPQDPEIYRACDELGLIVWSEICVVNEVRKNAAFAHNCKEMLKEMILQNYNHPSVVLWGAMNELWDYHKQAIALARELEALKKELDPYRLSCVAFHAFTWEKPYTQSSKEMFSISDVNGVNVYESWYQGDSATIAPMFDKFCSYSTAKPRFLSEFGAGSDERIHSYTPRTFDFTPEFQLDFNRRYINEMEKRPDYIGYSIWNLVDFQVDGRGDSKPNLNQKGMLTEDRRKKEIYYYCQARWSDIPMIHIAGADWTKRVEICDDSINVRKISVFSNQKTVELIHNGKSLGVREVVNGEAVFAVPFINGENLLDARSGALSDRLKIQMKLLSSRLTDSDVLLDGLCINLGQEHCYFIDPQLQEIWIPDKPYTKGSWGYMDGKPFNSWPGSSHDGVRYGVGADIKNTFLEPLFQTFLIGTTCYRLDVPDGVYEIGFYFTEPFSKDERKNIVRTGVSAEGQRVFDVSVNGEKLIDSLNLADSYGEQTAVVKTLVVNVRNHEGLEILLSPQKGQGVISGLKVKKIR
B3 showed a Km ([1]; optimal pH 6.0, 37 °C) of 1400 ± 100 µM, a kcat ([1]; optimal pH 6.0, 37 °C) of 7.5 ± 0.4 s⁻¹ and a kcat/Km ([1]; optimal pH 6.0, 37 °C) of 5200 ± 500 M⁻¹ s⁻¹.

B4: Eubacterium eligens GUS (EeGUS) (Lachnospira eligens ATCC 27750) (protein)
chain: MLYPVLTQSRLLSDLSGVWDFKLDNGKGFEEKWYEKPLKDADTMPVPASYNDLKEGTDFRDHYGWVFYQRNISVPEYVKSQRIVLRCAAVTHYAMIYLNGKLICEHKGGFLPFEVELNDDLQDGDNLLTIAVNNVIDYTTLPVGGKANMMSGMMGGMGAGASDKPQNNPNFDFFNYCGITRPVKIYTTPETYINDITVTADIDFTKEEPSAVLNYNVEIKGKDYNNITCKVELFDEEGTKLSETEGSEGTFEISNVRLWQPLNAYLYKIKVTAGQDVYTLPYGVRSVRVDGTKFLINEKPFYFKGYGKHEDTFPNGRGINLPMNTKDISIMKWQHANSFRTSHYPYSEEMMRLCDEEGIVVIDETTAVGVNLQFGGGANFGGERIGTFDKEHGVQTQEHHKDVIRDLISRDKNHACVVMWSIANEPDSAAEGAYDYFKPLYDLARELDPQKRPCTLVSVQGTTADTDCSSQLSDVICLNRYYGWYFGGPDLEVSEIGLRKELSDWGKLGKPVMFTEYGADTVSGLHDTTSVMYTEEYQVEYYEMNNKVFDEFDFVVGEQAWNFADFATSQSLLRVQGNKKGLFTRDRKPKMVAHYFRNRWSTIPEFGYKTK
B4 showed a Km ([1]; optimal pH 6.5, 37 °C) of 223 ± 8 µM, a kcat ([1]; optimal pH 6.5, 37 °C) of 120 ± 8 s⁻¹ and a kcat/Km ([1]; optimal pH 6.5, 37 °C) of 540000 ± 20000 M⁻¹ s⁻¹.

B5: Faecalibacterium prausnitzii GUS (FpGUS) (Faecalibacterium duncaniae) (protein)
chain: MNRSLLYPRATTTRRLIGLDGMWRFSFDPESKGVEAGWALDLPSSLSMPVPASFCDLFTDKASREYCGDFWYETSFFVPAEWSGWDIVLRFGSVTHRARVFVNGVEVAQHEGGFLPFDATVTNIVRYNQFNKLSVLANNELSETMLPAGTTCTLADGRKIAAPYFDFYNYAGIHRPVWLMALPKERVLDYSTRYRLTETGAEIDYTVSTNGPHPVTVELYDGTTRVAESSGTTGTLVVKNARLWNVHAAYLYDLVIRIHEGSAVVDEYLDRIGIRTFEIRHGRFLLNGSPVYLRGFGRHEDADIRGRGLDLPTVKRDFELMKWIGANCFRTSHYPYAEEIYQMADEEGFLIIDEVPAVGFMQSTANFLAANQGNGRQQGFFEKETTPALLKNHKAALTDMIDRDKNHPSVIAWSLLNEPQCTSAGTEEYFKPLFELARRLDPQKRPRTYTVLMTSLPDTSKGQRFADFVSLNRYYGWYVLGGAGLADAEAAFHHEMDGWAKVLHGRPLIFTEYGTDNLSGAHKLPSVMWSAEYQNEYLEMTHAVFDHYDFVQGELVWNFADFQTTEGILRVDGNKKGIFTRQRQPKDAAYLFRKRWTTLPVDFKKRKK
For B5, the Km ([1]; optimal pH 6.0, 37 °C) was 2200 ± 300 µM, the kcat ([1]; optimal pH 6.0, 37 °C) was 58 ± 4 s⁻¹ and the kcat/Km ([1]; optimal pH 6.0, 37 °C) was 27000 ± 2000 M⁻¹ s⁻¹.

B6: Lactobacillus rhamnosus GUS (LrGUS) (Lacticaseibacillus rhamnosus) (protein)
chain: METSLLYPVTNDQRTDQKLDGLWQFKFDEAGEGEKSGWETGFHDGVSMPVPASFNDFFTDKASREYTGDFWYSRNFFVPSAAKGKALFLRFDAVTHRATIFVNGKEIRTHEGGFLPFAADISEAVKYGAENTVVVKGNNELSREALPAGDTITLRNGKKMVRPFFDFYNYSGLNRSVHLLSLPQERVLDYTTTFALAGNDATVNYTVETNGDAPVTVSLADADGQVVATAQGKQGALQVQNAHLWQVRNAYLYTLTIQLGDDTQTPLDTYTDRIGIRTIKISGTDILVNDKPIYLKGFGRHEDSPFAGRAFDLNVEKKDFALMKWIGANSFRTSHYPYDEQVYKIADEEGFLLTDEVPAVGFKMAAAAFLGGLNQSFFKGPWLKKLHERHIDQIRDLIKRDKNHPSVLAWSLFNEPDTIDENAVPYFKQIFDESKDLDPQGRPRTFTLSEDDTIETSKVLDFPDFYMLNRYPGWYHFGGYQISDGEAGLRDEMDKWQKAGVKKPVVFTEFGADTEAGLHKLPSVMWTEEYQVEVLKMFSRVFDDYDFIKGEQVWNLADFQTVEGNMRVNGNKKGIFTRDRQPKAAAFFYHDRWNKLPLDYKAK
B6 gave a Km ([1]; optimal pH 4.5, 37 °C) of 1500 ± 100 µM, a kcat ([1]; optimal pH 4.5, 37 °C) of 10 ± 0.7 s⁻¹ and a kcat/Km ([1]; optimal pH 4.5, 37 °C) of 6700 ± 300 M⁻¹ s⁻¹.

B7: Ruminococcus gnavus GUS (RgGUS) (Mediterraneibacter gnavus) (protein)
chain: MLEYSELYPIQNGHRMMQSLDGMWKFQFDPEEIGEKSGWENGLPAPVSMPVPSSFADFFTDHKERDYCGDFWYETEFYLPAEWRNKKIWLRFGSITHRGTVYCNGMEITSHEGGFLPVLADISTVAKPGQVNQVVVKINNELNETSLPCGATKILNNGRKLAKPYFDFFNYSGLQRSVWVIALPEESVKDYSVDYELCGTDALVKYEVVTTGEHPVIVRLLDAEGELVAETEGKEGILQVANAHLWEVRNAYLYQIVILITDGNGVLDEYREKIGIRTVRIEGTQILLNDRPVYLKGFGKHEDFSILGRGFHWGIVKRDFECLKWTNANCFRTSHYPYAEEWYQFADEEGFLIIDEVPAVGMMRSTRNFVAAGSGNYTYFFEALTVPELLKSHIADTEEMITRDKNHPSVIAWSLFNEPETITDYAYEYFKEVFAAAETYDFQSRPMTGAFEKNSKPELCKCYPLCDFICLNRYYGWYISGGPEIEEAEELFRDEMDRWKAKELNVPFVFTEFGTDTMAGLHKLPSIMWSEEYQKEYLEMNFRVFDSYEFVQGELAWNFADFQTTEGIMRVDGNHKGVFTRDRQPKAAAVVFKDRWEKKNELF
B7 was tested, and the Km [2] was 1.4 ± 0.2^b mM, the kcat [2] was 2.8 ± 0.3 s⁻¹ and the kcat/Km [2] was 2000 ± 100 M⁻¹ s⁻¹.
